According to patent publication US20230416378A1 (Boehringer Ingelheim, published 2023):

B1: YW64.3, comparative antibody directed against Nrp1A (antibody, human IgG1, kappa, L234A L235A, V domains shown)
VH: EVQLVESGGGLVQPGGSLRLSCAASGFSFSSEPISWVRQAPGKGLEWVSSITGKNGYTYYADSVKGRFTISADTSKNTAYLQMNSLRAEDTAVYYCARWGKKVYGMDVWGQGTLVTVSS
VL: DIQMTQSPSSLSASVGDRVTITCRASQSISSYLAWYQQKPGKAPKLLIYGASSRASGVPSRFSGSGSGTDFTLTISSLQPEDFATYYCQQYMSVPITFGQGTKVEIKR
notes: Made for comparison after WO2007056470; also called anti-Nrp1A (YW64.3); Clone YW64.3
B2: YW107.4.87, comparative antibody directed against Nrp1B (antibody, human IgG1, kappa, V domains shown)
VH: EVQLVESGGGLVQPGGSLRLSCAASGFTFSSYAMSWVRQAPGKGLEWVSQISPAGGYTNYADSVKGRFTISADTSKNTAYLQMNSLRAEDTAVYYCARGELPYYRMSKVMDVWGQGTLVTVSS
VL: DIQMTQSPSSLSASVGDRVTITCRASQYFSSYLAWYQQKPGKAPKLLIYGASSRASGVPSRFSGSGSGTDFTLTISSLQPEDFATYYCQQYLGSPPTFGQGTKVEIKR
notes: Made for comparison after WO2007056470; also called anti-Nrp1B (YW107.4.87)
B3: Antibody of the invention (clone I), humanized anti-Nrp1A antibody (antibody, human IgG1, kappa, L234A L235A, V domains shown)
VH: EVQLLESGGGLVKPGGSLRLSCAASGFTFSSYAMSWVRQAPGKGLEWVSSISRTGYTYYAESVKGRFTISRDESKQTLYLQMQSLKTEDTAVYYCARVGTAFDYWGQGTLVTVSS
VL: not shown
notes: also called exemplary antibody of the invention; lead compound

Legend:
[1] = biological target: T1, Neuropilin-1 (Nrp1) endogenously expressed on human endothelial cells (HRMEC, HUVEC) (human, UniProt O14786 22-923); assay: cell-based or functional assay
T1 sequence (O14786 22-923 V179A limits assumed): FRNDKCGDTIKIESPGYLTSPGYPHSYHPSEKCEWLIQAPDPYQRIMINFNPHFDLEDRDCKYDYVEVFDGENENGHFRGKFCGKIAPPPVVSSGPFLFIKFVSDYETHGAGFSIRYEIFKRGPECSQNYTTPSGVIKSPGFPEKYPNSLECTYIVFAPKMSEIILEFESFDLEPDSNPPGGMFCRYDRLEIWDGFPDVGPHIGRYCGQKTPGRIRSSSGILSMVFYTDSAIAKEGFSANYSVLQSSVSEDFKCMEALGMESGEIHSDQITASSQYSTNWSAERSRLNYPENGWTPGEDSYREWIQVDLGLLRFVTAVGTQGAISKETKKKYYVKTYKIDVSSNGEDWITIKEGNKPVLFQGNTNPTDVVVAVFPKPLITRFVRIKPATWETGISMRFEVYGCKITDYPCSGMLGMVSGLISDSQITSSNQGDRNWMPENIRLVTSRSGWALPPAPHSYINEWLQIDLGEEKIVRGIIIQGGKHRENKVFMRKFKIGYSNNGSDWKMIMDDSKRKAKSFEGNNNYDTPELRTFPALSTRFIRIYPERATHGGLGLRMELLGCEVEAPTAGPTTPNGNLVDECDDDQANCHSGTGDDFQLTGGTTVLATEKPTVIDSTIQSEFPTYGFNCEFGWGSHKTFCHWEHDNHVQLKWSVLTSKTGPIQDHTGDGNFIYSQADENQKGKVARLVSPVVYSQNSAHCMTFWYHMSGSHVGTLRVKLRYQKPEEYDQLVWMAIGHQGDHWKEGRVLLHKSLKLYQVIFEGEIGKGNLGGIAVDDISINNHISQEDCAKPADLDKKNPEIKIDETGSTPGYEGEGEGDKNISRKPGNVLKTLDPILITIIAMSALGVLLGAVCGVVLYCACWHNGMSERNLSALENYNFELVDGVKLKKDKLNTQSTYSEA

[2] = biological target: T2, human Nrp1 (soluble analyte in SPR and BLI) (human, UniProt O14786 22-856, limits assumed); assay: SPR, antibody captured on Protein A/G (GLM sensorchip), human Nrp1A as analyte 0-100 nM, 1:1 Langmuir fit
T2 construct: also called hNrp1; Human Nrp1A
T2 sequence (O14786 22-856 V179A limits assumed): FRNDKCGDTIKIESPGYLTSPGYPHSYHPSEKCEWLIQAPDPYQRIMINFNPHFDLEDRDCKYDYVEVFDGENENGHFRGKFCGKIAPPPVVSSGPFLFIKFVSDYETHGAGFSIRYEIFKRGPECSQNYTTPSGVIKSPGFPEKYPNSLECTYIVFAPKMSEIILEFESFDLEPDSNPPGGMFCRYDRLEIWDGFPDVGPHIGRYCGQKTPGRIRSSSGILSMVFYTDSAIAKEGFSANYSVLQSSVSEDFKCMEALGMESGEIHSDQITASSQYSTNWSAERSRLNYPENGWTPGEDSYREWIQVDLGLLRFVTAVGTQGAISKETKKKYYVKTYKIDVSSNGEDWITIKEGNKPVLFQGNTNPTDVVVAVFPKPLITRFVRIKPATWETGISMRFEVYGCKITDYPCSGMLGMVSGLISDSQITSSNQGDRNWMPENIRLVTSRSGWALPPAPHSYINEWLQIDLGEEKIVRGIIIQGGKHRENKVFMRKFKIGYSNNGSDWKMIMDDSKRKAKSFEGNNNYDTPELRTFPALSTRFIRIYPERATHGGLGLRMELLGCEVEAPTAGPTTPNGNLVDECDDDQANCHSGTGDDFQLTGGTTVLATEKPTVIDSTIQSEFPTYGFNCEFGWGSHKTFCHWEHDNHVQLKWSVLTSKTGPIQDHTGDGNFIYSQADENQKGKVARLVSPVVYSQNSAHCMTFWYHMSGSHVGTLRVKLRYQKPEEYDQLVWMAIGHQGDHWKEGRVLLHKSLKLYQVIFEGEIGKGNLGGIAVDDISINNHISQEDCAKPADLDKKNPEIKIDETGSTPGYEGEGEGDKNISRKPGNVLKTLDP
Description: (§1) The running buffer for this experiment and all dilutions (except where stated) were done in PBS-T-EDTA with 0.01% Tween20 [100 ul of 100% Tween20 was added to 2L of PBS-T-EDTA to make final Tween 20 concentration of 0.01%]. The GLM sensorchip was normalized and pre-conditioned as per the manufacturer's recommendations. The sensorchip was activated with equal mixture of EDC/s-NHS in the horizontal direction for 300 sec at a flow rate of 30 μl/min and immobilized with Recombinant Protein NG (60 μg/ml in 10 mM acetate pH 4.5) in the horizontal direction for 300 sec at a flowrate of 30 μl/min. The sensorchip was deactivated with 1M ethanolamine HCl in the horizontal direction for 300 sec at a flowrate of 30 μl/min. The sensorchip was stabilized with 18 sec of 0.85% phosphoric acid at a flowrate of 100 μl/min 3 times horizontally and 3 times vertically.
Human Nrp1A was prepared in PBS-T-EDTA buffer at concentrations of 100, 50, 25, 12.5, 6.25, and 0 nM. A PBS-T-EDTA buffer injection was used as a double reference for the kinetic data analysis. Each of the human Nrp1A solutions and PBS-T-EDTA buffer were injected simultaneously over the 6 horizontal channels for 5 min at a flow rate of 40 μL/min followed by 30 min dissociation phase. The surfaces were regenerated by an 18 sec injection of 0.85% Phosphoric acid at a flow rate of 100 μL/min followed by an injection of sec PBS-T-EDTA at a flow rate of 100 μL/min. The interspot (interactions with sensor surface) and blank (PBS-T-EDTA with 0.01% Tween20 or 0 nM analyte) were subtracted from the raw data.

[3] = biological target: T1, Neuropilin-1 (Nrp1) endogenously …; assay: cell-based or functional assay; remark: listed apart in the source
rat Nrp1 = biological target: T3, rat Nrp1 (rat, UniProt Q9QWJ9 22-855, limits assumed); assay: SPR, antibody captured on Protein A/G (GLM sensorchip), Nrp1 as analyte 0-100 nM, 1:1 Langmuir fit
T3 construct: also called rat Nrp1A
T3 sequence (Q9QWJ9 22-855 limits assumed): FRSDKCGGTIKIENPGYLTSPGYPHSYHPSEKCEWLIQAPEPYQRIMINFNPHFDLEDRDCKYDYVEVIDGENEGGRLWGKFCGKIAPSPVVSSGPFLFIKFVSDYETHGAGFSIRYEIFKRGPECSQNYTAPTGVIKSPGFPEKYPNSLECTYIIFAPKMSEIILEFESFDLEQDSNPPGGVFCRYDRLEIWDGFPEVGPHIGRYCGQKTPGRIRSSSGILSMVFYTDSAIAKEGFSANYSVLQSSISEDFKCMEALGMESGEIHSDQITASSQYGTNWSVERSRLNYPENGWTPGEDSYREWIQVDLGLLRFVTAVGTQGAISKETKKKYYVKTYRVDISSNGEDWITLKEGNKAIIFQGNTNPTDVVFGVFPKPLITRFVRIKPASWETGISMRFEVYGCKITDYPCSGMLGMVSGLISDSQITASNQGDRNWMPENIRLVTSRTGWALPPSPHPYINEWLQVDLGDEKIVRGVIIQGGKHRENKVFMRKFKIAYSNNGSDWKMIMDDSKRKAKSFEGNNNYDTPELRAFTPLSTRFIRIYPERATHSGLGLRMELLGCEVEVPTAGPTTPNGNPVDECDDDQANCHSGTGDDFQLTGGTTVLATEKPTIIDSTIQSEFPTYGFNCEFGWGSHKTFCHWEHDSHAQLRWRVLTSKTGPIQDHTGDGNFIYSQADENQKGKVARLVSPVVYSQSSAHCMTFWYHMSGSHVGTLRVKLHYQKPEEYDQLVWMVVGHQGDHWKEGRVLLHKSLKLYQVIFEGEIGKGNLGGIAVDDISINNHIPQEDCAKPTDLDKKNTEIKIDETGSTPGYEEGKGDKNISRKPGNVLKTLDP
Description: as §1, with “The sensorchip was activated with equal mixture of EDC/s-NHS in the horizontal direction for 300 sec at a flow rate of 30 μl/min and immobilized with Recombinant Protein NG (60 μg/ml in 10 mM acetate pH 4.5) in the horizontal direction for 300 sec at a flowrate of 30 μl/min.” left out
(§2) The baseline was stabilized by injecting PBS-T-EDTA for 60 sec at a flowrate of 100 μl/min horizontally with dissociation of 120 sec. The analyte was injected horizontally over the captured antibody for 300 sec at a flowrate of 30 μl/min and a dissociation for 1800 sec. The concentrations of the analytes were 0 nM, 6.25 nM, 12.5 nM, 25 nM, 50 nM, and 100 nM. The surface was regenerated by injecting 0.85% phosphoric acid for 18 sec at a flowrate of 100 μl/min one time horizontally and one time vertically. PBS-T-EDTA was injected for 60 sec at a flowrate of 100 μl/min one time vertically and one time horizontally.
(§3) The interspot (interactions with sensor surface) and blank (PBS-T-EDTA with 0.01% Tween20 or 0 nM analyte) were subtracted from the raw data.

[4] = biological target: T2, human Nrp1 (soluble analyte in SPR and …); assay: as above
Description: as §1, with “The sensorchip was activated with equal mixture of EDC/s-NHS in the horizontal direction for 300 sec at a flow rate of 30 μl/min and immobilized with Recombinant Protein NG (60 μg/ml in 10 mM acetate pH 4.5) in the horizontal direction for 300 sec at a flowrate of 30 μl/min.” left out
as §2, §3

gerbil Nrp1 = biological target: T4, gerbil Nrp1 (gerbil); assay: as above
T4 construct: also called gerbil Nrp1A
Description: as §1, with “The sensorchip was activated with equal mixture of EDC/s-NHS in the horizontal direction for 300 sec at a flow rate of 30 μl/min and immobilized with Recombinant Protein NG (60 μg/ml in 10 mM acetate pH 4.5) in the horizontal direction for 300 sec at a flowrate of 30 μl/min.” left out
as §2, §3

cyno Nrp1 = biological target: T5, cyno Nrp1 (cyno, UniProt A0A2K5V5E7 24-858); assay: as above
T5 construct: also called cyno-Nrp1A
T5 sequence (A0A2K5V5E7 entry or part of it): as the sequence (O14786 22-856 V179A limits assumed) above, with H77R, F78L, R79W, P96Q, L258V, V341I, M396L, I460V, L578P counted along it
Description: as §1, with “The sensorchip was activated with equal mixture of EDC/s-NHS in the horizontal direction for 300 sec at a flow rate of 30 μl/min and immobilized with Recombinant Protein NG (60 μg/ml in 10 mM acetate pH 4.5) in the horizontal direction for 300 sec at a flowrate of 30 μl/min.” left out
as §2, §3

mouse Nrp1 = biological target: T6, mouse Nrp1 (mouse, UniProt P97333 22-856, limits assumed); assay: as above
T6 construct: also called mouse Nrp1A
T6 sequence (P97333 22-856 limits assumed): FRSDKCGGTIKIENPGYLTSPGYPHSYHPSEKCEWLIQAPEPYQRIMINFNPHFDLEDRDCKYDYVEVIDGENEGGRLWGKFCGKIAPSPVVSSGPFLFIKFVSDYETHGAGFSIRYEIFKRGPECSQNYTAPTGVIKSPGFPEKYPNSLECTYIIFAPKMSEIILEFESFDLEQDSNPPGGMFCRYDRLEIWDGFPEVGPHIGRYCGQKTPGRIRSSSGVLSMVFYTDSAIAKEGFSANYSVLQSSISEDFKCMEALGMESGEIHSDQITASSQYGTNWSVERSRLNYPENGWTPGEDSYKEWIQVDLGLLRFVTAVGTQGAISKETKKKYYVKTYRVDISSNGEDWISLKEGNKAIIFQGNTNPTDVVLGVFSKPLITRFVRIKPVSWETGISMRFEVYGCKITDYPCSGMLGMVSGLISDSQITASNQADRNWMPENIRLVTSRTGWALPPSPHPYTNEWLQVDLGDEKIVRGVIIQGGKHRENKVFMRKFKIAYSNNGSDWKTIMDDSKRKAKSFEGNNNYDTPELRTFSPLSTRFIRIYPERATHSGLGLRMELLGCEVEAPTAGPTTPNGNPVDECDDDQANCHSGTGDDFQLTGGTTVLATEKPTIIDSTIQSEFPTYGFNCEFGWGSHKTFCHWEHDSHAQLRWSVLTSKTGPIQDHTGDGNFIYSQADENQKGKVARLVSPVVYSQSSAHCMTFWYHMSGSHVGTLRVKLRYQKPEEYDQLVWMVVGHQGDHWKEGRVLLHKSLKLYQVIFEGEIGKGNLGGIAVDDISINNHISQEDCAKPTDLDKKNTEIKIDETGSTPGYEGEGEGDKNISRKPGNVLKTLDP
Description: as §1, with “The sensorchip was activated with equal mixture of EDC/s-NHS in the horizontal direction for 300 sec at a flow rate of 30 μl/min and immobilized with Recombinant Protein NG (60 μg/ml in 10 mM acetate pH 4.5) in the horizontal direction for 300 sec at a flowrate of 30 μl/min.” left out
as §2, §3

Binder | VEGF induced cell integrity loss IC50 [1] [nM] | Kd [2] [nM] | Collapse assay IC50 [3] [nM] | Kd (rat Nrp1) [nM] | Kd [4] [nM] | Kd (gerbil Nrp1) [nM] | Kd (cyno Nrp1) [nM] | Kd (mouse Nrp1) [nM]
B1 | 12.6 | 11.3 | 0.056 |  |  |  |  | 
B2 | 13.7 | 37.5 |  |  |  |  |  | 
B3 | 0.74 | 11.1 | 0.098 | 10.5 | 11.1 | 13.9 | 15.2 | 7.7
